B1: C8orf76 (parent)
chain: KLAEAYLNLGPALSAALASSQKQH

Variants of: B1
Experiment: protein stability index of a GFP-peptide fusion (GPS, HEK-293T) (PSI 1-6); higher = more stable
Conditions: c terminus: a fixed tail appended
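Further: lentivirally expressed fusions sorted by FACS into six bins by GFP to DsRed ratio, PSI derived from sequencing read proportions per bin multiplied by bin number.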

Going from KLKEAYLNLGPALSAALASSQKQH [A3K] to KLLEAYLNLGPALSAALASSQKQH [A3L], the protein stability index rises from 1.93 to 3.56.

First: KLMEAYLNLGPALSAALASSQKQH [A3M]
Second: KLNEAYLNLGPALSAALASSQKQH [A3N]
The protein stability index of the first is lower: 1.43 for the first, 2.12 for the second.

First: KLPEAYLNLGPALSAALASSQKQH [A3P]
Second: KLQEAYLNLGPALSAALASSQKQH [A3Q]
The protein stability index of the first is higher: 2.48 for the first, 1.72 for the second.

Compared with KLREAYLNLGPALSAALASSQKQH [A3R], KLSEAYLNLGPALSAALASSQKQH [A3S] is lower in protein stability index: 2.24 for the first, 1.82 for the second.

Going from KLTEAYLNLGPALSAALASSQKQH [A3T] to KLVEAYLNLGPALSAALASSQKQH [A3V], the protein stability index rises from 1.52 to 3.08.

Going from KLWEAYLNLGPALSAALASSQKQH [A3W] to KLYEAYLNLGPALSAALASSQKQH [A3Y], the protein stability index rises from 3.22 to 3.71.

Going from KLAAAYLNLGPALSAALASSQKQH [E4A] to KLACAYLNLGPALSAALASSQKQH [E4C], the protein stability index falls from 1.83 to 1.57.

First: KLADAYLNLGPALSAALASSQKQH [E4D]
Second: KLAFAYLNLGPALSAALASSQKQH [E4F]
The protein stability index of the first is higher: 2.2 for the first, 1.94 for the second.

Compared with KLAGAYLNLGPALSAALASSQKQH [E4G], KLAHAYLNLGPALSAALASSQKQH [E4H] is higher in protein stability index: 2.43 for the first, 3.03 for the second.

Going from KLAIAYLNLGPALSAALASSQKQH [E4I] to KLAKAYLNLGPALSAALASSQKQH [E4K], the protein stability index falls from 2.97 to 1.43.

First: KLAMAYLNLGPALSAALASSQKQH [E4M]
Second: KLANAYLNLGPALSAALASSQKQH [E4N]
The protein stability index of the first is higher: 4.83 for the first, 2.35 for the second.

Going from KLAPAYLNLGPALSAALASSQKQH [E4P] to KLAQAYLNLGPALSAALASSQKQH [E4Q], the protein stability index rises from 2.2 to 2.63.

Compared with KLARAYLNLGPALSAALASSQKQH [E4R], KLASAYLNLGPALSAALASSQKQH [E4S] is lower in protein stability index: 1.6 for the first, 1.31 for the second.

Compared with KLATAYLNLGPALSAALASSQKQH [E4T], KLAVAYLNLGPALSAALASSQKQH [E4V] is lower in protein stability index: 3.2 for the first, 1.39 for the second.

First: KLAWAYLNLGPALSAALASSQKQH [E4W]
Second: KLAYAYLNLGPALSAALASSQKQH [E4Y]
The protein stability index of the first is higher: 3.01 for the first, 2.55 for the second.

Going from KLAECYLNLGPALSAALASSQKQH [A5C] to KLAEDYLNLGPALSAALASSQKQH [A5D], the protein stability index falls from 4.48 to 2.44.

Going from KLAEEYLNLGPALSAALASSQKQH [A5E] to KLAEFYLNLGPALSAALASSQKQH [A5F], the protein stability index rises from 2.96 to 3.28.

Going from KLAEGYLNLGPALSAALASSQKQH [A5G] to KLAEHYLNLGPALSAALASSQKQH [A5H], the protein stability index rises from 2.03 to 2.04.

Compared with KLAEKYLNLGPALSAALASSQKQH [A5K], KLAELYLNLGPALSAALASSQKQH [A5L] is higher in protein stability index: 1.82 for the first, 4.98 for the second.

First: KLAEMYLNLGPALSAALASSQKQH [A5M]
Second: KLAENYLNLGPALSAALASSQKQH [A5N]
The protein stability index of the first is higher: 3.68 for the first, 2.07 for the second.

Going from KLAEPYLNLGPALSAALASSQKQH [A5P] to KLAEQYLNLGPALSAALASSQKQH [A5Q], the protein stability index falls from 2.76 to 2.33.

Compared with KLAERYLNLGPALSAALASSQKQH [A5R], KLAESYLNLGPALSAALASSQKQH [A5S] is lower in protein stability index: 2.27 for the first, 1.24 for the second.

First: KLAETYLNLGPALSAALASSQKQH [A5T]
Second: KLAEVYLNLGPALSAALASSQKQH [A5V]
The protein stability index of the first is higher: 2.93 for the first, 1.89 for the second.

Going from KLAEWYLNLGPALSAALASSQKQH [A5W] to KLAEYYLNLGPALSAALASSQKQH [A5Y], the protein stability index rises from 1.58 to 4.03.

Going from KLAEAALNLGPALSAALASSQKQH [Y6A] to KLAEACLNLGPALSAALASSQKQH [Y6C], the protein stability index rises from 1.54 to 2.32.

First: KLAEADLNLGPALSAALASSQKQH [Y6D]
Second: KLAEAELNLGPALSAALASSQKQH [Y6E]
The protein stability index of the first is higher: 3.94 for the first, 3.65 for the second.

Compared with KLAEAHLNLGPALSAALASSQKQH [Y6H], KLAEAILNLGPALSAALASSQKQH [Y6I] is higher in protein stability index: 2.3 for the first, 2.39 for the second.

Compared with KLAEAKLNLGPALSAALASSQKQH [Y6K], KLAEANLNLGPALSAALASSQKQH [Y6N] is higher in protein stability index: 3.18 for the first, 3.58 for the second.

First: KLAEAPLNLGPALSAALASSQKQH [Y6P]
Second: KLAEAQLNLGPALSAALASSQKQH [Y6Q]
The protein stability index of the first is higher: 3.59 for the first, 2.73 for the second.

First: KLAEARLNLGPALSAALASSQKQH [Y6R]
Second: KLAEASLNLGPALSAALASSQKQH [Y6S]
The protein stability index of the first is lower: 2.98 for the first, 3.04 for the second.

First: KLAEATLNLGPALSAALASSQKQH [Y6T]
Second: KLAEAVLNLGPALSAALASSQKQH [Y6V]
The protein stability index of the first is lower: 1.85 for the first, 3.81 for the second.

First: KLAEAWLNLGPALSAALASSQKQH [Y6W]
Second: KLAEAYANLGPALSAALASSQKQH [L7A]
The protein stability index of the first is higher: 2.08 for the first, 1.6 for the second.

Going from KLAEAYCNLGPALSAALASSQKQH [L7C] to KLAEAYDNLGPALSAALASSQKQH [L7D], the protein stability index falls from 2.36 to 2.23.

First: KLAEAYENLGPALSAALASSQKQH [L7E]
Second: KLAEAYFNLGPALSAALASSQKQH [L7F]
The protein stability index of the first is higher: 2.65 for the first, 2.53 for the second.

First: KLAEAYGNLGPALSAALASSQKQH [L7G]
Second: KLAEAYHNLGPALSAALASSQKQH [L7H]
The protein stability index of the first is lower: 1.67 for the first, 1.94 for the second.

Going from KLAEAYINLGPALSAALASSQKQH [L7I] to KLAEAYKNLGPALSAALASSQKQH [L7K], the protein stability index falls from 2.59 to 1.62.

Compared with KLAEAYMNLGPALSAALASSQKQH [L7M], KLAEAYNNLGPALSAALASSQKQH [L7N] is higher in protein stability index: 1.53 for the first, 1.94 for the second.

Compared with KLAEAYPNLGPALSAALASSQKQH [L7P], KLAEAYQNLGPALSAALASSQKQH [L7Q] is lower in protein stability index: 2.23 for the first, 1.54 for the second.

First: KLAEAYSNLGPALSAALASSQKQH [L7S]
Second: KLAEAYTNLGPALSAALASSQKQH [L7T]
The protein stability index of the first is higher: 2.21 for the first, 1.7 for the second.

Going from KLAEAYVNLGPALSAALASSQKQH [L7V] to KLAEAYYNLGPALSAALASSQKQH [L7Y], the protein stability index falls from 3.1 to 2.07.

First: KLAEAYLALGPALSAALASSQKQH [N8A]
Second: KLAEAYLCLGPALSAALASSQKQH [N8C]
The protein stability index of the first is higher: 4.23 for the first, 3.63 for the second.

Going from KLAEAYLDLGPALSAALASSQKQH [N8D] to KLAEAYLELGPALSAALASSQKQH [N8E], the protein stability index rises from 2.07 to 2.42.

Going from KLAEAYLFLGPALSAALASSQKQH [N8F] to KLAEAYLGLGPALSAALASSQKQH [N8G], the protein stability index falls from 2.74 to 2.5.

Compared with KLAEAYLHLGPALSAALASSQKQH [N8H], KLAEAYLKLGPALSAALASSQKQH [N8K] is lower in protein stability index: 2.16 for the first, 1.33 for the second.

Going from KLAEAYLLLGPALSAALASSQKQH [N8L] to KLAEAYLMLGPALSAALASSQKQH [N8M], the protein stability index falls from 2.33 to 2.15.

Compared with KLAEAYLPLGPALSAALASSQKQH [N8P], KLAEAYLQLGPALSAALASSQKQH [N8Q] is lower in protein stability index: 2.02 for the first, 1.73 for the second.

Compared with KLAEAYLRLGPALSAALASSQKQH [N8R], KLAEAYLSLGPALSAALASSQKQH [N8S] is lower in protein stability index: 3.8 for the first, 3.78 for the second.

KLAEAYLTLGPALSAALASSQKQH [N8T] showed a protein stability index of 3.12.

Reference: the supplement of paper PMC10567573
